The source of these data is patent US20150024955.

In data set [1] the target is mixture of recombinant PP1 isoforms (α, β, and γ; Upstate).

HDAC7-GFP fusion protein, sequence (Q8C2B3 whole entry, the tested form may be a part): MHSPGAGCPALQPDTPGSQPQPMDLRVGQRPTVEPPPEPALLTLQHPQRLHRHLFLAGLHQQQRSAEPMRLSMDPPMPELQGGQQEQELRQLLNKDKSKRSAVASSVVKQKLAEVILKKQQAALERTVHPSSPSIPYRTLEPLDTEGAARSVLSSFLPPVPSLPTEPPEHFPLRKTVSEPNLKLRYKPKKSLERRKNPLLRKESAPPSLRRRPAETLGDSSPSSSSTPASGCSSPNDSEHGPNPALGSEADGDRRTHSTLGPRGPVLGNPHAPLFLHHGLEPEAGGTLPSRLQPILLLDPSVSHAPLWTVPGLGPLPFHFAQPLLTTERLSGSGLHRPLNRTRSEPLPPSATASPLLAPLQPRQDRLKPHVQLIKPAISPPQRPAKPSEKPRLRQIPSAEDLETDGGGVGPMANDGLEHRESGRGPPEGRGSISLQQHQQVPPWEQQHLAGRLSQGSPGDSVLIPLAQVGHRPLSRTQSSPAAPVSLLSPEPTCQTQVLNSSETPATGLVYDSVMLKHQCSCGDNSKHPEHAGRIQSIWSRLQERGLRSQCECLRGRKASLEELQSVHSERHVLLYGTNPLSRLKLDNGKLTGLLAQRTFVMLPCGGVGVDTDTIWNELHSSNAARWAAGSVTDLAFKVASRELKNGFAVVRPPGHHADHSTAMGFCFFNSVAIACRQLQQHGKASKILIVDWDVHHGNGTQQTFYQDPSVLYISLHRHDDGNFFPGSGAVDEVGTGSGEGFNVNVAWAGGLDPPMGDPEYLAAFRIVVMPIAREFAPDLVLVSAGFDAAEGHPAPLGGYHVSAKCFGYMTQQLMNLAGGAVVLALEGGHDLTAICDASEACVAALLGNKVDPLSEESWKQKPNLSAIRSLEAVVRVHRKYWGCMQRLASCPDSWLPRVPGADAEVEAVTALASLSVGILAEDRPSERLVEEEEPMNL

B1: FLAG-tagged human HDAC7, phosphorylated (from DO11.10-HDAC7-Flag cells treated with PMA or anti-CD3) (protein)
chain: MDLRVGQRPPVEPPPEPTLLALQRPQRLHHHLFLAGLQQQRSVEPMRLSMDTPMPELQVGPQEQELRQLLHKDKSKRSAVASSVVKQKLAEVILKKQQAALERTVHPNSPGIPYRTLEPLETEGATRSMLSSFLPPVPSLPSDPPEHFPLRKTVSEPNLKLRYKPKKSLERRKNPLLRKESAPPSLRRRPAETLGDSSPSSSSTPASGCSSPNDSEHGPNPILGSEADSDRRTHPTLGPRGPILGSPHTPLFLPHGLEPEAGGTLPSRLQPILLLDPSGSHAPLLTVPGLGPLPFHFAQSLMTTERLSGSGLHWPLSRTRSEPLPPSATAPPPPGPMQPRLEQLKTHVQVIKRSAKPSEKPRLRQIPSAEDLETDGGGPGQVVDDGLEHRELGHGQPEARGPAPLQQHPQVLLWEQQRLAGRLPRGSTGDTVLLPLAQGGHRPLSRAQSSPAAPASLSAPEPASQARVLSSSETPARTLPFTTGLIYDSVMLKHQCSCGDNSRHPEHAGRIQSIWSRLQERGLRSQCECLRGRKASLEELQSVHSERHVLLYGTNPLSRLKLDNGKLAGLLAQRMFVMLPCGGVGVDTDTIWNELHSSNAARWAAGSVTDLAFKVASRELKNGFAVVRPPGHHADHSTAMGFCFFNSVAIACRQLQQQSKASKILIVDWDVHHGNGTQQTFYQDPSVLYISLHRHDDGNFFPGSGAVDEVGAGSGEGFNVNVAWAGGLDPPMGDPEYLAAFRIVVMPIAREFSPDLVLVSAGFDAAEGHPAPLGGYHVSAKCFGYMTQQLMNLAGGAVVLALEGGHDLTAICDASEACVAALLGNRVDPLSEEGWKQKPNLNAIRSLEAVIRVHSKYWGCMQRLASCPDSWVPRVPGADKEEVEAVTALASLSVGILAEDRPSEQLVEEEEPMNL
Consider B1, for which the “in vitro dephosphorylation assay (30 minutes at 30° C.), Western blot with phospho HDAC7 antibodies” value in data set [1] is listed as “recombinant PP1 treatment totally abolished the reactivity to the different phospho HDAC7 antibodies”.

B2: myosin phosphatase (complex of PP1β and MYPT1) (protein)
chain 1: ADGELNVDSLITRLLEVRGCRPGKIVQMTEAEVRGLCIKSREIFLSQPILLELEAPLKICGDIHGQYTDLLRLFEYGGFPPEANYLFLGDYVDRGKQSLETICLLLAYKIKYPENFFLLRGNHECASINRIYGFYDECKRRFNIKLWKTFTDCFNCLPIAAIVDEKIFCCHGGLSPDLQSMEQIRRIMRPTDVPDTGLLCDLLWSDPDKDVQGWGENDRGVSFTFGADVVSKFLNRHDLDLICRAHQVVEDGYEFFAKRQLVTLFSAPNYCGEFDNAGGMMSVDETLMCSFQILKPSEKKAKYQYGGLNSGRPVTPPRTANPPKKR
chain 2: MKMADAKQKRNEQLKRWIGSETDLEPPVVKRQKTKVKFDDGAVFLAACSSGDTDEVLKLLHRGADINYANVDGLTALHQACIDDNVDMVKFLVENGANINQPDNEGWIPLHAAASCGYLDIAEFLIGQGAHVGAVNSEGDTPLDIAEEEAMEELLQNEVNRQGVDIEAARKEEERVMLRDARQWLNSGHISDVRHAKSGGTALHVAAAKGYTEVLKLLIQAGYDVNIKDYDGWTPLHAAAHWGKEEACRILVDNLCDMETVNKVGQTAFDVADEDILGYLEELQKKQTLLHSEKRDKKSPLIESTANMENNQPQKAFKNKETLIIEPEKNASRIESLEHEKADEEEEGKKDESSCSSEEDEEDDSESEAETDKTKPMASVSNAHTSSTQAAPAAVTAPTLSSNQGTPTSPVKKFPISTTKISPKEEERKDESPASWRLGLRKTGSYGALAEISASKEAQKEKDTAGVMRSASSPRLSSSLDNKEKEKDNKGTRLAYVTPTIPRRLASTSDIEEKENRESSSLRTSSSYTRRKWEDDLKKNSSINEGSTYHRSCSFGRRQDDLISCSVPSTTSTPTVTSAAGLQRSLPSSTSTAAKTPPGSSSAGTQSSTSNRLWAEDSTEKEKDSAPTAVTIPVAPTVVNAAAPSTTTLTTTTAGTVSEVRERRRSYLTPVRDEESESQRKARSRQARQSRRSTQGVTLTDLQEAEKTIGRSRSTRTREQENEEKEKEEKEKQDKEKQEEKKESEASREDEYKQKYSRTYDETYTRYRPVSTSSSSAPSSSSLSTLGSTLYASSQLNRPNSLVGITSAYSRGLAKENEREGEKKEEEKEGEDKSQPKSIRERRRPREKRRSTGVSFWTQDSDENEQERQSDTEDGSSKRETQTDSVSRYDSSSTSSSDRYDSLLGRSASYSYLEDRKPYSSRLEKDDSTDFKKLYEQILAENEKLKAQLHDTNMELTDLKLQLEKATQRQERFADRSQLEMEKRERRALERRISEMEEELKMLPDLKADNQRLKDENGALIRVISKLSK
In the case of B2, the “nuclear exclusion of HDAC7-GFP after siRNA knockdown of myosin phosphatase subunits (immunofluorescence microscopy)” value with HDAC7-GFP fusion protein is reported as “HDAC7 nuclear re-entry was significantly delayed at later time points”.
